Measurements: publication PMC3463842

Biological target: ubiquitin^TAMRA (C-terminal TAMRA-labelled ubiquitin) (UniProt P0CG48)
Assay: fluorescence polarisation

Kd [µM] | Substance
97 | HOIP^LDD (domain or fragment)
734 | HOIP^LDD C930A (domain or fragment)
